Results published in patent US20220089705A1 (Harvard, published 2022).
Numbering of substitutions follows the chain as printed. In names and notes the source's numbering stands.

Tests used:
[1] = biological target: T1, recombinant human FABP5/Mal1 (human, UniProt Q01469 1-135); assay: Octet RED384: biotinylated human FABP5/Mal1 on streptavidin biosensors, maximal association signal minus background
T1 construct: Bought; Biotinylated and loaded on streptavidin biosensors; also called hFABP5/hMal1; Mal1/FABP5
Description: The recombinant human proteins aP2 (generated at UCB in E. coli (see method below)), hFABP3 (Sino Biological Inc.) and hFABP5/hMal1 (Sino Biological Inc.) were biotinylated in a 5-fold molar excess of EZ-Link® Sulfo-NHS-LC-Biotin (Thermo Fisher Scientific) and purified from unbound biotin using a Zeba desalting column (Thermo Fisher Scientific). All binding studies were performed at 25° C. using a ForteBio Octet RED384 system (Pall ForteBio Corp.). After a 120 s baseline step in PBS containing 0.05% Tween 20, pH7.4 (PBS-T), Dip and Read™ streptavidin (SA) biosensors (Pall ForteBio Corp.) were loaded with biotinylated recombinant haP2, hFABP3 or hFABP5/hMal1 at 60 nM for 90 s. After a 60 s stabilisation step in PBS-T, each FABP-loaded biosensor was transferred to a sample of monoclonal antibody at 800 nM and association was measured for 5 min. Biosensors were then transferred back to PBS-T for 5 min to measure dissociation. Non-specific binding of antibodies was monitored using unloaded biosensor tips. Maximal association binding i.e., once signal had plateaued, minus background binding, was plotted for each antibody/FABP combination.

[2] = biological target: T2, human aP2 (fatty acid-binding protein, adipocyte, FABP4/aP2) (human, UniProt P15090 1-132, Biotinylated with Sulfo-NHS-LC-Biotin in the Octet assay. Refolded with palmitic acid after delipidation. The letters carry neither.); assay: SPR, Biacore T200: antibody captured on immobilized anti-mouse IgG Fc, aP2 titrated 40 to 0.625 µM, steady state fit
T2 construct: also called haP2; human FABP4
Description: (§1) The affinity of anti-aP2 binding to aP2 (recombinantly generated in E. coli as described below) was determined by biomolecular interaction analysis, using a Biacore T200 system (GE Healthcare). Affinipure F(ab′)2 fragment goat anti-mouse IgG, Fc fragment specific (Jackson ImmunoResearch Lab, Inc.) in 10 mM NaAc, pH 5 buffer was immobilized on a CMS Sensor Chip via amine coupling chemistry to a capture level between 4500-6000 response units (RU) using HBS-EP+(GE Healthcare) as the running buffer. Anti-aP2 IgG was diluted to between 1-10 μg/ml in running buffer. A 60 s injection of anti-aP2 IgG at 10 μl/min was used for capture by the immobilized anti-mouse IgG, Fc then aP2 was titrated from 25 nM to 3.13 nM over the captured anti-aP2 for 180 s at 30 μl/min followed by 300 s dissociation. The surface was regenerated by 2×60 s 40 mM HCl and 1×30 s 5 mM NaOH at 10 μl/min. The data were analyzed using Biacore T200 evaluation software (version 1.0) using the 1:1 binding model with local Rmax. […] The surface was regenerated by 1×60 s 40 mM HCl, 1×30 s 5 mM NaOH and 1×60 s 40 mM HCl at 10 μl/min. Steady state fitting was used to determine affinity values.

[3] = biological target: T2, human aP2 (fatty acid-binding protein, …); assay: method not stated in the sentence (FIG. 31); average binding affinity; PB1172, human aP2
[4] = biological target: T3, mouse aP2 (fatty acid-binding protein, adipocyte, FABP4/aP2) (mouse, UniProt P04117 1-132); assay: method not stated in the sentence (FIG. 31); average binding affinity; PB1172, mouse aP2
T3 construct: Lipid-loaded and de-lipidated preparations are the same polypeptide and are told apart under assay; also called mouse FABP4; murine aP2
T3 sequence: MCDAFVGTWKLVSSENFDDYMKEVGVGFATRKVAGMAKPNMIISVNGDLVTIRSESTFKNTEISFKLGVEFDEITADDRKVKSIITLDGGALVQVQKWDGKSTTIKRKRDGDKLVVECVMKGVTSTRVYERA

[5] = biological target: T2, human aP2 (fatty acid-binding protein, …); assay: assay not given; KD (M) column under 'Human', first of two rows (also printed as 5.62 under KD (µM))
[6] = biological target: T3, mouse aP2 (fatty acid-binding protein, …); assay: assay not given; KD (M) column under 'Mouse', first of two rows (also printed as 4.14 under KD (µM))
[7] = biological target: T2, human aP2 (fatty acid-binding protein, …); assay: assay not given; KD (M) column under 'Human', second of two rows (also printed as 6.44 under KD (µM))
[8] = biological target: T3, mouse aP2 (fatty acid-binding protein, …); assay: assay not given; KD (M) column under 'Mouse', second of two rows (also printed as 4.99 under KD (µM))
[9] = biological target: T2, human aP2 (fatty acid-binding protein, …); assay: SPR, Biacore T200: antibody captured on immobilized anti-mouse IgG Fc, aP2 titrated 25 to 3.13 nM, 1:1 binding model
Description: as §1

[10] = biological target: T3, mouse aP2 (fatty acid-binding protein, …); assay: method not stated in the sentence (FIG. 31); average binding affinity; PB1171, mouse aP2
[11] = biological target: T3, mouse aP2 (fatty acid-binding protein, …); assay: assay not given; KD (M) column under 'Mouse', first of two rows (also printed as 5.53 under KD (µM))
[12] = biological target: T3, mouse aP2 (fatty acid-binding protein, …); assay: assay not given; KD (M) column under 'Mouse', second of two rows (also printed as 4.71 under KD (µM))

T1 sequence (Q01469 whole entry): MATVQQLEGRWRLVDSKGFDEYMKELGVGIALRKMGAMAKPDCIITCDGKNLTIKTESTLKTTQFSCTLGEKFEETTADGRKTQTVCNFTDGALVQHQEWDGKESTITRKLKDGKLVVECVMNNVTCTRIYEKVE

B1: CA33, rabbit-mouse hybrid anti-aP2 monoclonal antibody (Rabbit Ab 909) (antibody, V domains shown)
VH: QSVEESGGRLVTPGTPLTLTCTVSGFSLSTYYMSWVRQAPGKGLEWIGIIYPSGSTYCASWAKGRFTISKASTTVDLKITSPTTEDTATYFCARPDNDGTSGYLSGFGLWGQGTLVTVSS
VL: DVVMTQTPASVSEPVGGTVTIKCQASEDISRYLVWYQQKPGQPPKRLIYKASTLASGVPSRFKGSGSGTDFTLTISDLECDDAATYYCQCTYGTYAGSFFYSFGGGTEVVVE
notes: also called Rabbit Antibody 909
binding result [1]: no binding
Kd [2]: 2.83 µM

B2: PB1172 (H3 gL11/gH19), reduced-affinity variant of H3 (antibody, mouse IgG1, V domains shown)
VH: QVQLQQPGAELVKPGASVKLSCKASGYTFTSNAITWVKQRPGQGLEWIGDISPGSGSTTNNEKFKSKATLTVDTSSSTAYMQLSSLTSEDSAVYYCARLRGYYDYFDFWGQGTTLTVSS
VL: EVVLTQSPALMAASPGEKVTITCSVSSSISSSNLHWYQQKSETSPKPWIYGTSNLASGVPVRFSGSGSGTSYSLTISSMEAEDAATYYCQQASHYPLTFGAGTKLELK
notes: Heavy chain W33A, Y52S; light chain W91A, relative to H3; also called 5251.mIgG1168; APP5168/PB1172
Kd [3]: 6.03 µM
Kd [4]: 4.57 µM
Kd [5]: 5.62 µM
Kd [6]: 4.14 µM
Kd [7]: 6.44 µM
Kd [8]: 4.99 µM

B3: H3, mouse anti-aP2 monoclonal antibody (H3 gL1/gH1) (antibody, V domains shown)
VH: B2 VH with A33W, S52Y
VL: B2 VL with A92W
notes: Mouse IgG; also called wild-type parent H3
binding result [1]: no binding
Kd [9]: 0.0011 µM

B4: PB1171 (H3 gL1/gH20), reduced-affinity variant of H3 (antibody, mouse IgG1, V domains shown)
VH: B2 VH with Y102F
VL: B2 VL with A92W
notes: Heavy chain W33A, Y52S, Y98F relative to H3; also called 5252.mIgG1.169; APP5169/PB1171
Kd [10]: 5.12 µM
Kd [11]: 5.53 µM
Kd [12]: 4.71 µM
